The source of these data is patent US20170015742A1 (published 2017).

In test [1] the target is PDGF-BB (UniProt P01127 82-190). The experiment in a line: SPR (Biacore), DVD-Ig captured by anti-human Fc, antigen injected. As for the experimental part: (§1) For example, approximately 9000 RU of goat anti-human Fc specific polyclonal antibody (Thermo Fisher Scientific Inc., Rockford, Ill.) diluted in 10 mM sodium acetate (pH 4.5) is directly immobilized across a CM5 research grade biosensor chip using a standard amine coupling kit according to manufacturer's instructions and procedures at 25 μg/ml. Unreacted moieties on the biosensor surface were blocked with ethanolamine. For kinetic analysis, rate equations derived from the 1:1 Langmuir binding model were fitted simultaneously to multiple antigen injections (using global fit analysis) with the use of Scrubber 2 (BioLogic Software), Biacore Biaevaluation 4.0.1 software or Biacore T100 Evaluation software. Purified antibodies or DVD-Ig molecules were diluted in running buffer for capture across goat anti-human Fc reaction surfaces. Antibodies or DVD-Ig molecules to be captured as a ligand (1 μg/ml) were injected over reaction matrices at a flow rate of 10 μl/minute. During the assay, all measurements were referenced against the capture surface alone (i.e., with no captured antibody or DVD-Ig molecule). […] The equilibrium dissociation constant KD (M) of the reaction between antibodies and the target antigen was then calculated from the kinetic rate constants by the following formula: KD=Koff/Kₒₙ. Binding was recorded as a function of time and kinetic rate constants were calculated.
For orientation: In SPR one partner is held on a chip, and binding of the other changes the refractive index at the surface.

In test [2] the target is VEGF-A (UniProt P15692-4 27-191, limits assumed). The test is described as above. As to the method: as §1

The term Kd denotes the equilibrium constant for the complex coming apart. A lower Kd goes with higher affinity. In general, kon refers to a measure of how fast the partners come together. Low readings indicate slow association, high ones fast association.

Sequence of PDGF-BB (P01127 82-190): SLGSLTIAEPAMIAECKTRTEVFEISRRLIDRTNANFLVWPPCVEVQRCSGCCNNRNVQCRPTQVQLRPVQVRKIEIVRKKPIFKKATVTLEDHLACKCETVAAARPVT
Sequence of VEGF-A (P15692 other isoform, or with tags, fused parts or gaps limits assumed): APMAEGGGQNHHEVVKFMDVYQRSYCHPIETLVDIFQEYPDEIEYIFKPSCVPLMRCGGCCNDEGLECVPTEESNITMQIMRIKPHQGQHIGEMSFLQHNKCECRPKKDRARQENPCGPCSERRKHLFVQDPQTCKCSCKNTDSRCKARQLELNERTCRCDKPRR

B1: 9E10.1_GS_3E2.1 (PR-1610562) (bispecific antibody, human IgG1, kappa, L234A L235A)
heavy: EIQLVQSGSELKKPGASVKVSCKASGYTFTNYGMYWVKQAPGQGLEYMGWIDTETGRPTYADDFKGRFVFSLDTSVSTAYLQISSLKAEDTAVYFCARWSGDTTGIRGPWFAYWGQGTLVTVSSGGGGSGGGGSEVQLVQSGAEVKKPGSSVKVSCKASGYTFTESYMYWVKQAPGQGLELIGRIDPEDGSTDYVEKFKNKATLTADKSTSTAYMELSSLRSEDTAVYFCARFGARSYFYPMDAWGQGTTVTVSSASTKGPSVFPLAPSSKSTSGGTAALGCLVKDYFPEPVTVSWNSGALTSGVHTFPAVLQSSGLYSLSSVVTVPSSSLGTQTYICNVNHKPSNTKVDKKVEPKSCDKTHTCPPCPAPEAAGGPSVFLFPPKPKDTLMISRTPEVTCVVVDVSHEDPEVKFNWYVDGVEVHNAKTKPREEQYNSTYRVVSVLTVLHQDWLNGKEYKCKVSNKALPAPIEKTISKAKGQPREPQVYTLPPSREEMTKNQVSLTCLVKGFYPSDIAVEWESNGQPENNYKTTPPVLDSDGSFFLYSKLTVDKSRWQQGNVFSCSVMHEALHNAYTQKSLSLSPGK
light: DIRMTQSPSSLSASVGDRVTIECLASEDIYSDLAWYQQKPGKSPKLLIYNANGLQNGVPSRFSGSGSGTDYSLTISSLQPEDVATYFCQQYNYFPGTFGQGTKLEIKGGSGGGGSGGETVLTQSPATLSLSPGERATLSCRASESVSTLMHWYQQKPGQQPRLLIYGASNLESGVPARFSGSGSGTDFTLTISSLEPEDFAVYFCQQSWNDPWTFGGGTKVEIKRTVAAPSVFIFPPSDEQLKSGTASVVCLLNNFYPREAKVQWKVDNALQSGNSQESVTEQDSKDSTYSLSSTLTLSKADYEKHKVYACEVTHQGLSSPVTKSFNRGEC
notes: DVD-Ig: outer hBEW-9E10.1 (VEGF), inner hBFU-3E2.1 (PDGF), linkers GS-H10 / GS-L10(dR); Human IgG1 L234A, L235A, H435A with kappa light chain
In test [1], B1 returned a Kd of 21 pM and a kon of 4.1e+07 M⁻¹ s⁻¹. In test [2], this molecule came in with an equilibrium dissociation constant (Kd) of 2.4 pM and a kon of 9.3e+06 M⁻¹ s⁻¹.

B2: 9E10.6_GS_3E2.1 (PR-1610563) (bispecific antibody, human IgG1, kappa, L234A L235A)
heavy: EVQLVQSGAEVKKPGSSVKVSCKASGYTFTNYGMYWVRQAPGQGLEWMGWIDTETGRPTYADDFKGRFTFTADKSTSTAYMELSSLRSEDTAVYYCARWSGDTTGIRGPWFAYWGQGTLVTVSSGGGGSGGGGSEVQLVQSGAEVKKPGSSVKVSCKASGYTFTESYMYWVKQAPGQGLELIGRIDPEDGSTDYVEKFKNKATLTADKSTSTAYMELSSLRSEDTAVYFCARFGARSYFYPMDAWGQGTTVTVSSASTKGPSVFPLAPSSKSTSGGTAALGCLVKDYFPEPVTVSWNSGALTSGVHTFPAVLQSSGLYSLSSVVTVPSSSLGTQTYICNVNHKPSNTKVDKKVEPKSCDKTHTCPPCPAPEAAGGPSVFLFPPKPKDTLMISRTPEVTCVVVDVSHEDPEVKFNWYVDGVEVHNAKTKPREEQYNSTYRVVSVLTVLHQDWLNGKEYKCKVSNKALPAPIEKTISKAKGQPREPQVYTLPPSREEMTKNQVSLTCLVKGFYPSDIAVEWESNGQPENNYKTTPPVLDSDGSFFLYSKLTVDKSRWQQGNVFSCSVMHEALHNAYTQKSLSLSPGK
light: DIRMTQSPSSLSASVGDRVTITCLASEDIYSDLAWYQQKPGKSPKLLIYNANGLQNGVPSRFSGSGSGTDYTLTISSLQPEDVATYFCQQYNYFPGTFGQGTKLEIKGGSGGGGSGGETVLTQSPATLSLSPGERATLSCRASESVSTLMHWYQQKPGQQPRLLIYGASNLESGVPARFSGSGSGTDFTLTISSLEPEDFAVYFCQQSWNDPWTFGGGTKVEIKRTVAAPSVFIFPPSDEQLKSGTASVVCLLNNFYPREAKVQWKVDNALQSGNSQESVTEQDSKDSTYSLSSTLTLSKADYEKHKVYACEVTHQGLSSPVTKSFNRGEC
notes: DVD-Ig: outer hBEW-9E10.6 (VEGF), inner hBFU-3E2.1 (PDGF), linkers GS-H10 / GS-L10(dR); Human IgG1 L234A, L235A, H435A with kappa light chain
On to B2, for which the equilibrium dissociation constant (Kd) in test [1] stood at 36 pM; in test [2] it was 3 pM. The results for the kon in test [1] and in test [2] were 5.8e+06 M⁻¹ s⁻¹ and 8.6e+06 M⁻¹ s⁻¹, respectively.

B3: 9E10.1_GS_CL-33675 (PR-1610561) (bispecific antibody, human IgG1, kappa, L234A L235A)
heavy: EIQLVQSGSELKKPGASVKVSCKASGYTFTNYGMYWVKQAPGQGLEYMGWIDTETGRPTYADDFKGRFVFSLDTSVSTAYLQISSLKAEDTAVYFCARWSGDTTGIRGPWFAYWGQGTLVTVSSGGGGSGGGGSEVTLRESGPALVKPTQTLTLTCTFSGFSLSTYGMGVGWIRQPPGKALEWLANIWWDDDKYYNPSLKNRLTISKDTSKNQVVLTMTNMDPVDTATYYCARIESSGPKYSFDYWGQGTMVTVSSASTKGPSVFPLAPSSKSTSGGTAALGCLVKDYFPEPVTVSWNSGALTSGVHTFPAVLQSSGLYSLSSVVTVPSSSLGTQTYICNVNHKPSNTKVDKKVEPKSCDKTHTCPPCPAPEAAGGPSVFLFPPKPKDTLMISRTPEVTCVVVDVSHEDPEVKFNWYVDGVEVHNAKTKPREEQYNSTYRVVSVLTVLHQDWLNGKEYKCKVSNKALPAPIEKTISKAKGQPREPQVYTLPPSREEMTKNQVSLTCLVKGFYPSDIAVEWESNGQPENNYKTTPPVLDSDGSFFLYSKLTVDKSRWQQGNVFSCSVMHEALHNAYTQKSLSLSPGK
light: DIRMTQSPSSLSASVGDRVTIECLASEDIYSDLAWYQQKPGKSPKLLIYNANGLQNGVPSRFSGSGSGTDYSLTISSLQPEDVATYFCQQYNYFPGTFGQGTKLEIKGGSGGGGSGGEIVLTQSPGTLSLSPGERATLSCRASSGSIWYSFVSWYQQKPGQAPRLLIYADDQRASGIPDRFSGSGSGTDFTLTISRLEPEDFAVYYCQSYGINIDVVFGGGTKVEIKRTVAAPSVFIFPPSDEQLKSGTASVVCLLNNFYPREAKVQWKVDNALQSGNSQESVTEQDSKDSTYSLSSTLTLSKADYEKHKVYACEVTHQGLSSPVTKSFNRGEC
notes: DVD-Ig: outer hBEW-9E10.1 (VEGF), inner CL-33675 (PDGF), linkers GS-H10 / GS-L10(dR); Human IgG1 L234A, L235A, H435A with kappa light chain; also called 9E10.1-GS-33675; hu VEGF 9E10.1-GS-hu PDGF 33675 [hu IgG1/k]; LALA H435A
In test [1], B3 showed a Kd of 0.45 pM and a kon of 2e+07 M⁻¹ s⁻¹. In test [2], this molecule showed a Kd of 1.8 pM and an on-rate constant (kon) of 9.7e+06 M⁻¹ s⁻¹.

B4: 9E10.6_GS_CL-33675 (PR-1612492) (bispecific antibody, human IgG1, kappa, L234A L235A)
heavy: EVQLVQSGAEVKKPGSSVKVSCKASGYTFTNYGMYWVRQAPGQGLEWMGWIDTETGRPTYADDFKGRFTFTADKSTSTAYMELSSLRSEDTAVYYCARWSGDTTGIRGPWFAYWGQGTLVTVSSGGGGSGGGGSEVTLRESGPALVKPTQTLTLTCTFSGFSLSTYGMGVGWIRQPPGKALEWLANIWWDDDKYYNPSLKNRLTISKDTSKNQVVLTMTNMDPVDTATYYCARIESSGPKYSFDYWGQGTMVTVSSASTKGPSVFPLAPSSKSTSGGTAALGCLVKDYFPEPVTVSWNSGALTSGVHTFPAVLQSSGLYSLSSVVTVPSSSLGTQTYICNVNHKPSNTKVDKKVEPKSCDKTHTCPPCPAPEAAGGPSVFLFPPKPKDTLMISRTPEVTCVVVDVSHEDPEVKFNWYVDGVEVHNAKTKPREEQYNSTYRVVSVLTVLHQDWLNGKEYKCKVSNKALPAPIEKTISKAKGQPREPQVYTLPPSREEMTKNQVSLTCLVKGFYPSDIAVEWESNGQPENNYKTTPPVLDSDGSFFLYSKLTVDKSRWQQGNVFSCSVMHEALHNAYTQKSLSLSPGK
light: DIRMTQSPSSLSASVGDRVTITCLASEDIYSDLAWYQQKPGKSPKLLIYNANGLQNGVPSRFSGSGSGTDYTLTISSLQPEDVATYFCQQYNYFPGTFGQGTKLEIKGGSGGGGSGGEIVLTQSPGTLSLSPGERATLSCRASSGSIWYSFVSWYQQKPGQAPRLLIYADDQRASGIPDRFSGSGSGTDFTLTISRLEPEDFAVYYCQSYGINIDVVFGGGTKVEIKRTVAAPSVFIFPPSDEQLKSGTASVVCLLNNFYPREAKVQWKVDNALQSGNSQESVTEQDSKDSTYSLSSTLTLSKADYEKHKVYACEVTHQGLSSPVTKSFNRGEC
notes: DVD-Ig: outer hBEW-9E10.6 (VEGF), inner CL-33675 (PDGF), linkers GS-H10 / GS-L10(dR); Human IgG1 L234A, L235A, H435A with kappa light chain
For B4, in test [1], binding was put at a Kd of 1.2 pM and the kon stood at 2.4e+07 M⁻¹ s⁻¹. In addition, in test [2], binding was put at a Kd of 2 pM and the on-rate constant (kon) was found to be 1.1e+07 M⁻¹ s⁻¹.

B5: 9E10.1_GS_9E8.4 (PR-1612491) (bispecific antibody, human IgG1, kappa, L234A L235A)
heavy: EIQLVQSGSELKKPGASVKVSCKASGYTFTNYGMYWVKQAPGQGLEYMGWIDTETGRPTYADDFKGRFVFSLDTSVSTAYLQISSLKAEDTAVYFCARWSGDTTGIRGPWFAYWGQGTLVTVSSGGGGSGGGGSEVTLRESGPALVKPTQTLTLTCTFSGFSLSTYGMGVGWIRQPPGKALEWLANIWWDDDKYYNPSLKNRLTISKDTSKNQVVLTMTNMDPVDTATYYCARIESIGTTYSFDYWGQGTMVTVSSASTKGPSVFPLAPSSKSTSGGTAALGCLVKDYFPEPVTVSWNSGALTSGVHTFPAVLQSSGLYSLSSVVTVPSSSLGTQTYICNVNHKPSNTKVDKKVEPKSCDKTHTCPPCPAPEAAGGPSVFLFPPKPKDTLMISRTPEVTCVVVDVSHEDPEVKFNWYVDGVEVHNAKTKPREEQYNSTYRVVSVLTVLHQDWLNGKEYKCKVSNKALPAPIEKTISKAKGQPREPQVYTLPPSREEMTKNQVSLTCLVKGFYPSDIAVEWESNGQPENNYKTTPPVLDSDGSFFLYSKLTVDKSRWQQGNVFSCSVMHEALHNAYTQKSLSLSPGK
light: DIRMTQSPSSLSASVGDRVTIECLASEDIYSDLAWYQQKPGKSPKLLIYNANGLQNGVPSRFSGSGSGTDYSLTISSLQPEDVATYFCQQYNYFPGTFGQGTKLEIKGGSGGGGSGGEFVLTQSPGTLSLSPGERATLSCERSSGDIGDSYVSWYQQKPGQAPRLVIYADDQRPSGIPDRFSGSGSGTDFTLTISRLEPEDFAVYYCQSYDINIDIVFGGGTKVEIKRTVAAPSVFIFPPSDEQLKSGTASVVCLLNNFYPREAKVQWKVDNALQSGNSQESVTEQDSKDSTYSLSSTLTLSKADYEKHKVYACEVTHQGLSSPVTKSFNRGEC
notes: DVD-Ig: outer hBEW-9E10.1 (VEGF), inner hBDI-9E8.4 (PDGF), linkers GS-H10 / GS-L10(dR); Human IgG1 L234A, L235A, H435A with kappa light chain
For B5, the Kd in test [1] was found to be 25 pM; in test [2] it was 2.2 pM. In addition, the kon was 6.8e+06 M⁻¹ s⁻¹ in test [1] and 1.1e+07 M⁻¹ s⁻¹ in test [2].
